Measurements reported in publication PMC4559223.
Like-named read-outs stand apart in the source and are kept apart here.

B1: ADJ DNA (crystal) (dsDNA)
DNA 1: TTCTGATAAGACTTATCTGC
DNA 2: AAGCAGATAAGTCTTATCAG
B2: OPP DNA (crystal) (dsDNA)
DNA 1: TTGATAAATCAGAGATAACC
DNA 2: AAGGTTATCTCTGATTTATC

Key:
GATA3 C-finger [1] = molecular target: T1, GATA3 C-finger (mouse, UniProt P23772 308-370); assay: X-ray crystallography
GATA3 C-finger [2] = molecular target: T1, GATA3 C-finger; assay: X-ray crystallography; remark: listed apart in the source

T1 sequence (P23772 308-370): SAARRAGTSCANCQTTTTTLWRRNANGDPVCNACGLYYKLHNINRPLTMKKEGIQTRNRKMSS

Binder	binding result (GATA3 C-finger [1])	binding result (GATA3 C-finger [2])
B1	binds	
B2		binds
